Reference: US20230242586A1, “RAS INHIBITORS AND USES THEREOF” (The Regents of the University of California, priority 2020, published 2023)

Target: biotinylated wildtype K-Ras·GppNHp (His-Avi-TEV-KRAS (wildtype)) (human)
Test: TR-FRET Ras-Raf interaction assay (competition); reference K-Ras(G12D)

| Substance | fold IC50 on wildtype K-Ras against that for K-Ras(G12D) |
| --- | --- |
| bicyclic variant of KD2 (Val3 and Arg9 replaced with azidoalanine and propargylglycine) (peptide) | > 20 fold |
| bicyclic variant of KD2 (Val3 and Arg9 replaced with two cysteines) (peptide) | > 20 fold |
